Measured values reported in the supplement of paper PMC10567573.
± gives the standard deviation.

Assay: protein stability index of a GFP-peptide fusion (GPS, HEK-293T) (PSI 1-6); higher = more stable
Settings: c terminus: a fixed tail appended
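Note: 24-mer peptide tiles fused after GFP, lentivirally expressed, FACS-sorted into six equal bins by GFP/DsRed ratio, decoded by Illumina sequencing, PSI is the read-weighted mean bin number.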

Sequence | protein stability index (treatment: DMSO) | protein stability index (treatment: MLN4924 1 uM, 8 h)
MQALEIELQSQLSMKASLEGNLAE [KRT17] | 3.59 ± 0.19 | 3.45 ± 0.42
MRKGNTMQQFLQKALEILRKDFSE [FAM50A] | 3.09 ± 0.59 | 2.89 ± 0.46
MRSPQNLHSQEDDDSSSESGSGNG [NOL4L] | 5.64 ± 0.21 | 5.51 ± 0.16
MSDSTWMSADPHLASSLSPSQDER [NOL4L] | 5.31 ± 0.19 | 5.18 ± 0.28
MSGKSPVESSLNVKTKKNAPSATI [FBXO34] | 4.5 ± 0.22 | 4.6 ± 0.12
MTGLALKHMFERSFTQGEGARPLS [MATN2] | 2.69 ± 0.28 | 2.93 ± 0.42
MTMQFISHRFPEDHDPTIEDAYKI [RIT1] | 3.24 ± 0.15 | 3.36 ± 0.22
MVHVARLLLLLLTFFLRTDAETPP [PTPRD] | 2.91 ± 0.44 | 2.95 ± 0.44
MVKPLLHMLLNTTLNIKETDSKEL [ZBED1] | 2.13 ± 0.58 | 2.24 ± 0.38
MVQVACGASHVLALSTERELFAWG [NEK8] | 2.59 ± 1.1 | 2.32 ± 0.84
NAPNSLGVSALCAICGDRATGKHY [HNF4A] | 2.84 ± 0.12 | 3.2 ± 0.15
NAYHIERLMSFRPICSANHKESKM [CRYBA1] | 3.12 ± 0.16 | 3.29 ± 0.12
NCCLTLCNFSIPEELEFQYRRVNE [ZER1] | 2.55 ± 0.33 | 2.55 ± 0.14
NCGLEEKIANLGSCNDSKLEFRSF [S100A14] | 2.25 ± 0.68 | 2.82 ± 1.2
NDPEKNFLTTAIRPHGIFGPRDPQ [NSDHL] | 4.24 ± 0.3 | 4.24 ± 0.29
NDVRQAARSAASYMLFDPKDSVMQ [P3H4] | 3.97 ± 0.12 | 4.08 ± 0.39
NEARHNFGIVEIDGMLYILGGEDG [GAN] | 2.63 ± 0.37 | 2.72 ± 0.4
NEQVLTTEHEKKQKLETDAMFRLE [YJU2B] | 5.43 ± 0.15 | 5.43 ± 0.19
NFSIVPYEKKFDTFIPLEPLPQIP [SPATS1] | 3.04 ± 0.33 | 2.97 ± 0.34
NFSKKIQQIHVVSQFKILVSLLEN [VPS39] | 2.64 ± 0.39 | 2.81 ± 0.66
NIEDYFSHHLAVYNSPQFKKTMST [FBXO39] | 2.75 ± 0.28 | 2.71 ± 0.12
NIMNKEAFMNQEITKAFHVRKANR [RHOBTB1] | 3.35 ± 0.18 | 3.45 ± 0.34

Sequence | protein stability index (treatment: DMSO) | protein stability index (treatment: MLN4924 1 uM, 8 h)
NITINIVDDHTPWVKGSVPPPLDQ [CLPTM1] | 2.83 ± 0.28 | 2.77 ± 0.34
NKVLVCPMKSAPVMLTLSDSKHVV [RBBP5] | 2.57 ± 0.25 | 2.75 ± 0.19
NKYDNTCLMIAAYKGHTDVVRYLL [FEM1B] | 2.44 ± 0.66 | 2.31 ± 0.29
NLETNEWRYVSSLPQPLAAHAGAV [KLHL14] | 2.64 ± 0.36 | 2.87 ± 0.37
NPELIKPKKLLNPVKASRSHQELH [FAM107A] | 4.21 ± 0.16 | 4.24 ± 0.26
NRDLRKASVTIQARAEQEEEFISN [CCDC6] | 4.96 ± 0.26 | 5.05 ± 0.27
NRKSILSRHLNSQVKKTTTRWCHI [PHTF1] | 2.57 ± 0.55 | 2.57 ± 0.39
NRLSELEVANKDLTERKYKGDSTI [SASS6] | 4.71 ± 0.38 | 4.96 ± 0.38
NRLSIGLQSLDDTELRLLGRTHSA [RSAD1] | 3.77 ± 0.22 | 3.79 ± 0.28
NSLEGGTDATAFWWGEWTKWTACS [ADAMTSL2] | – | 3.25 ± 0.35
NSLRGVILDIHFLSQADFLVCTFS [FUT8] | 2.72 ± 0.71 | 2.79 ± 0.49
NSNQATDIMETSGWKSMIQSHPHL [SPOPL] | 3.34 ± 0.22 | 3.48 ± 0.21
NTLQTYIRCRHPPPGSHLLYAKMI [VDR] | 2.21 ± 0.15 | 2.33 ± 0.25
NTTCQTENRLSVFFSVIFMTVGIL [PTGFR] | 2.39 ± 0.53 | 2.64 ± 0.46
NYCLLFLIYTVMLAFRSGSDNLLV [SLC35F2] | 3.04 ± 0.44 | 3.29 ± 0.79
NYSIPSNVTNLEGGPGRQTTSPNV [ESR2] | 4.66 ± 0.36 | 4.68 ± 0.27
PAAMGPPGAPPGRDLASVPPELTA [DVL3] | 4.88 ± 0.29 | 4.89 ± 0.075
PAGVGVVVEATHMCMVMRGVQKMN [GCH1] | 2.41 ± 0.23 | 2.32 ± 0.34
PAMRNSPTFKSFEERVETTVTSLK [TPD52L1] | 4.61 ± 0.13 | 4.42 ± 0.2
PAPALCCAPYDSRLLGSARPELGA [IRX6] | 3.08 ± 0.19 | 3.1 ± 0.25
PASSRNRSPSGSLRSARGSRGGTR [RBMY1A1] | 5.14 ± 0.37 | 5.25 ± 0.24
PAWYVAACRANVKSGAIMSALSDT [PPFIA4] | 2.58 ± 0.26 | 2.25 ± 0.39

Sequence | protein stability index (treatment: DMSO) | protein stability index (treatment: MLN4924 1 uM, 8 h)
PAYGMSPSLSTITSTSSSITSSIP [DVL3] | 3.82 ± 0.26 | 3.65 ± 0.27
PDDVDYATNPHVKPPYSYATLICM [FOXJ1] | 2.22 ± 0.28 | 2.2 ± 0.28
PDTQLLKFQLNKYTGEIKISENLD [PCDHGA10] | 3.43 ± 0.44 | 3.66 ± 0.17
PEGTENPLGVDESLFSYGLRESIA [SLA] | 4.04 ± 1.1 | 4.19 ± 0.1
PEISRIIVDPTTGKRYCRGKVLGK [PLK2] | 3.9 ± 0.22 | 4.04 ± 0.2
PEKQKRKPGLRRSPIKKVRKSLAL [MYBL2] | 3.97 ± 0.2 | 3.83 ± 0.075
PFREILCKKLHIPLKAQNDLDISR [P2RY14] | 2.39 ± 0.12 | 2.46 ± 0.29
PGFDSSVYSDLCEAAEAVRPEERK [ADAMTSL2] | 5.42 ± 0.19 | 5.83 ± 0.18
PGKYFSAAEYHAQRLKAVIVIQTY [IQUB] | 2.81 ± 0.32 | 2.5 ± 0.66
PGPGDDLCSDLEEAPEAELSQAPA [HES6] | 5.44 ± 0.23 | 5.43 ± 0.35
PGPPGPTGVPGSPGHIGPPGPTGP [EMID1] | 5.29 ± 0.11 | 5.13 ± 0.44
PGPTAPSPTSRPPWAVDPAFAERY [PDLIM7] | 2.2 ± 0.43 | 3.02 ± 0.36
PGRSRMISQEEFARQLQLSDPQTV [LPCAT4] | 4.44 ± 0.22 | 4.38 ± 0.12
PGSLGPWKITIYDQENFQGKRMEF [CRYBA1] | 2.25 ± 0.33 | 2.18 ± 0.39
PGVAYPAFLGPDEAFALPDSLLVV [SPSB4] | 2.76 ± 0.49 | 2.21 ± 0.13
PHFQPDASLLQPVTPLGTSRWRKI [NCF4] | 3.58 ± 0.3 | 3.73 ± 0.17
PINYQGLRFSGVNDTDFRVYLLGN [POMT2] | 2.27 ± 0.23 | 2.46 ± 0.14
PKQLRLINQPLPDLKNVKSKIGST [MAP2] | 3.9 ± 0.1 | 3.88 ± 0.19
PKRCLKAREHFGTVKTHLTSLKTK [TSN] | 3.72 ± 0.32 | 3.88 ± 0.34
PKTSGTRATSLGRPEEEEDELAHR [CPOX] | 5.42 ± 0.36 | 5.42 ± 0.19
PLTLQVQRPLVSVTVSDASWVSEL [AUP1] | 2.67 ± 0.15 | 2.67 ± 0.25
